This is an account of results in patent publication US7125658B2, “Small protein that interacts with a ribonucleotide reductase subunit and uses thereof” (The Trustees of Columbia University in the City of New York, priority 1998, dated 2006).

The target of experiment [1] is T1, yeast RNR (Saccharomyces cerevisiae, UniProt P21524).
T1 construct: made in house; host or cells: E. coli BL21 (DE3), pET3a
T1 sequence (P21524 1-888): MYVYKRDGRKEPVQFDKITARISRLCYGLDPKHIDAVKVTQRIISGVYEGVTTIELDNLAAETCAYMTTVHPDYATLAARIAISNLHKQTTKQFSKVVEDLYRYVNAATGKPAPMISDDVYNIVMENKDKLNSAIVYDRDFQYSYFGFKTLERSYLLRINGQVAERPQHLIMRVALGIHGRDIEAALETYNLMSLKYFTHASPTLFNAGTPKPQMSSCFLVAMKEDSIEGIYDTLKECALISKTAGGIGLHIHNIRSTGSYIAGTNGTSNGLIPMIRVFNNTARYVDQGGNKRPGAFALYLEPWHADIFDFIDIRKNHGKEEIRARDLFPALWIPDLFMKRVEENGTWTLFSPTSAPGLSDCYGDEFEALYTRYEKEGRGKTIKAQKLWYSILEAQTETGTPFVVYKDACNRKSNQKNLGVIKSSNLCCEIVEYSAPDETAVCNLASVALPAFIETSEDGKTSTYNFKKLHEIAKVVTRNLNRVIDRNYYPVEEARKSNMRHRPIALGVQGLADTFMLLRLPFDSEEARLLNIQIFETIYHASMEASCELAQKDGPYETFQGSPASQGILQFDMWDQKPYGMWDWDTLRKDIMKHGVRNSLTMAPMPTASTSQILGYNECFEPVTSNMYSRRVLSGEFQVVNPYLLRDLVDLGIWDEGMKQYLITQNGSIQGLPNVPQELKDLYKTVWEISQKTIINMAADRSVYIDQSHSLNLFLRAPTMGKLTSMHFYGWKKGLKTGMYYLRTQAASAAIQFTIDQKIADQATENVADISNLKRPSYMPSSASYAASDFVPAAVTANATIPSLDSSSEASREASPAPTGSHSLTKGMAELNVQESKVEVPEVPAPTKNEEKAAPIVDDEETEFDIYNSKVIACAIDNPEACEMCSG
Put plainly: in vitro yeast ribonucleotide reductase CDP reduction assay. The class given is biochemical. How it is done: FIG. 9 Inhibition of yeast RNR by Sml1p. A series of tubes containing yeast RNR ([…]) were incubated at 30° C. for 30 min in a final volume of 50 μl: 25 nmol of [^3H]CDP (specific activity 37000 cpm/nmol), 2 μmol of Tris-HCl, pH 7.6, 0.125 μmol of ATP, 0.32 μmol of MgCl^2, 0.5 μmol of dithiothreitol, 5 μmol of KCl and 1 nmol of FeCl3. In addition, the tubes contained increasing amounts of Sml1p. After incubation, the samples were processed as described earlier to obtain the amount of dCDP formed (22).
FIG. 10 Inhibition of yeast RNR by nonapeptides corresponding to the C terminal ends of Sml1p, Rnr2p or Rnr4p. […] 9 in the presence of increasing amounts of nonapeptide. Sml1 peptide, ã; Rnr2 peptide, o; Rnr4 peptide, x.
Inhibition of yeast ribonucleotide reductase by the Sml1 protein. Recombinant yeast ribonucleotide reductase was assayed for activity using a CDP reduction assay, with ATP as a positive effector in the presence of increasing amounts of Sml1 protein (FIG. 9). A molar ratio of 1:1 between Rnr1p monomer (MW 100000) and Sml1p (MW 11800) gave about 50% inhibition.
Inhibition of yeast ribonucleotide reductase by nonapeptides corresponding to the C-terminal ends of Sml1p, Rnr2p or Rnr4p. […] Since such peptides are known to inhibit RNR activity by binding to the R1 protein and preventing R1/R2 interaction, we wanted to study the influence of a C-terminal nonapeptide of Sml1p on yeast RNR activity.

Experiment [2] addresses T2, yeast Rnr1p (Saccharomyces cerevisiae, UniProt P21524).
T2 construct: made in house; host or cells: E. coli BL21 (DE3), pET3a
T2 sequence (P21524 1-888): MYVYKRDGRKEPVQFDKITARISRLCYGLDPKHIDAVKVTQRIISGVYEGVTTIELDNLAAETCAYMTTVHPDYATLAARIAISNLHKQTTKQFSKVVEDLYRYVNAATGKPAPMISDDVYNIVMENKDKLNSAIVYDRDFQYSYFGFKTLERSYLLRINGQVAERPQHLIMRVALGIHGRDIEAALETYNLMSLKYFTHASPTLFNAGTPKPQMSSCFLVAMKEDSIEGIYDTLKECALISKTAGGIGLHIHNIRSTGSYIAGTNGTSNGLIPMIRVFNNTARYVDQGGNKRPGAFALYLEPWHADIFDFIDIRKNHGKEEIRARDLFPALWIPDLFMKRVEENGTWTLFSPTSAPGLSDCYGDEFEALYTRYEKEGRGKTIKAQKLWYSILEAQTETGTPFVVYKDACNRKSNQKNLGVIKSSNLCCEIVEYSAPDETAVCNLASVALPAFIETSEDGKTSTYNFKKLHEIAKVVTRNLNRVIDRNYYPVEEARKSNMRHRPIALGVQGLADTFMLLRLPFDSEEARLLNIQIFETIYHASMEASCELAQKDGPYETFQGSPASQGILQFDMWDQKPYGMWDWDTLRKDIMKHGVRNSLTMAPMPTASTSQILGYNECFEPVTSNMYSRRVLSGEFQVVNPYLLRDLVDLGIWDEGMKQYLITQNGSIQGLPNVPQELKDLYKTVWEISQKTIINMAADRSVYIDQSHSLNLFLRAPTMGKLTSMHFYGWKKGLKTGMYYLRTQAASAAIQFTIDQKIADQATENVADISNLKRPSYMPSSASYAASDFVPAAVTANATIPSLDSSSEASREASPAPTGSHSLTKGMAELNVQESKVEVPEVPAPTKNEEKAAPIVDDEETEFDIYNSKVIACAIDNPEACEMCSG
The experiment is described as follows: BIAcore biosensor analysis, immobilized Sml1p and yeast Rnr1p. The class given is binding. The protocol:
BIAcore biosensor analysis. The interaction between Sml1p and either yeast Rnr1p or mouse R1 protein was studied by biosensor analysis using the BIAcore method (Biacore AB). The Sml1 protein was prepared in 10 mM sodium acetate, pH 5.2, at a concentration of 0.44 mg/ml; it was then immobilized on the dextran layer of the sensor chip as described previously for the mouse R2 protein (17). The ligand proteins were equilibrated with running buffer (10 mM Hepes-KOH, pH 7.4, 200 mM potassium acetate, 1 mM EDTA, 5 mM magnesium acetate and 0.05% Surfactant P20 (BIAcore). The interactions were studied at a constant temperature of 22° C. and a constant flow of 5 μl/min. Kinetics for the interaction of Sml1p with yeast Rnr1p was determined by allowing the immobilized Sml1p to interact with increasing concentrations of Rnr1p (18). The resonance unit (RU) is proportional to the mass, and 1 RU corresponds to a surface concentration of 1 pg of protein/mm^2 of the 100 nm thick dextran layer (19).
Kinetic studies of the interaction between the Rnr1 and Sml1 proteins using a biosensor technique. To obtain a quantitative description of the Rnr1p and Sml1p interaction, we immobilized the Sml1 protein to the dextran layer of a sensor chip, and then injected a series of solutions containing increasing concentrations of Rnr1p to the same sensor chip. The immobilization of Sml1p at a concentration of 0.44 mg/ml gave an increase of 91 resonance units (RU), which correspond to 91 pg/mm^2. With a surface of 0.8 mm 2, 91 RU corresponds to a total of 72.8 pg of bound Sml1p, which can be compared with the total injected amount of 15.4 μg. This low degree of attachment (only 0.0005%) makes it unlikely that the protein is attached to multiple binding sites.
In control experiments, where the same series of Rnr1p solutions passed a sensor chip without immobilized Sml1p, a “bulk effect” gave a response of only about 60 RU. The same background value of about 60 RU was observed when bovine serum albumin or Rnr2p/Rnr4p heterodimer was injected at a concentration of 0.1 mg/ml (data not shown). In FIG. 1B, the response at equilibrium is plotted against the concentration of injected Rnr1p. […] These values correspond to 691 pg/mm^2 or a total of 553 pg or 5.5 fmol Rnr1p monomer bound to about 6.2 fmol immobilized Sml1p, i.e. nearly one Rnr1p monomer bound per molecule of immobilized Sml1p. […] Calculating the equilibrium dissociation constant from these rate constants gave a K0 of about 0.25 μM, which is close to the directly determined K0.
On the technique in general: In SPR one partner is held on a chip, and binding of the other changes the refractive index at the surface.

The mark [3] stands for this setting: BIAevaluation software, lower curves of FIG. 12A.

B1: Sml1p: 104 amino acid yeast protein encoded by YML058w (SML1) that binds Rnr1 and inhibits ribonucleotide reductase; recombinant, expressed in E. coli (protein)
chain: MQNSQDYFYAQNRCQQQQAPSTLRTVTMAEFRRVPLPPMAEVPMLSTQNSMGSSASASASSLEMWEKDLEERLNSIDHDMNNNKFGSGELKSMFNQGKVEEMDF
What is called Kd is the free concentration of one partner at which half of the binding sites on the other are occupied at equilibrium, for simple one-to-one binding. With B1, the “efficiency in inhibiting yeast RNR activity relative to its C terminal nonapeptide, on a molar basis” value in experiment [1] is “about 200 times”. The “type of inhibition versus Rnr2p/Rnr4p heterodimer” value in experiment [1] (Rnr2p/Rnr4p 1 to 32 μg, Rnr1p 2 μg, Sml1p 0, 0.2 and 2 μg) is on record as “noncompetitive inhibition”. Also, the “inhibition of yeast RNR” value in experiment [1] (molar ratio of 1:1 between Rnr1p monomer and Sml1p, CDP reduction, ATP as positive effector) is “about 50%”. In addition, in experiment [2] (setting [3]), the association rate constant result is given as “about 153000 M^1s^−1” and the dissociation rate constant was found to be 0.04 s⁻¹. This molecule showed a maximal binding in experiment [2] (Rnr1p bound to immobilized Sml1p (91 RU)) of 691 RU. Further, the Kd in experiment [2] (immobilized Sml1p, mobile phase Rnr1p, 22° C., response at equilibrium fitted to one site binding model, read-out: equilibrium dissociation constant (KD)) turned out to be 400 nM.
